Experimental findings from article PMC6468809, “Structural Analysis of the 42 kDa Parvulin of Trypanosoma brucei” (Biomolecules, 2019) are described below.

*1 amine or outer side, *2 acyl side, *3 side chain or, on linkers, in order; H or OH if unused. Where no end group is shown, it is not given here. [ ]: non-standard residue; d: D form. pT = C[C@@H](OP(=O)(O)O)[C@H](N)C(=O)O; Suc = O=C(CCC(=O)[*:2])[*:1]

A word on the Kd: it is the constant that tells how readily two partners part at equilibrium. A low value points to higher affinity.

The labels stand for the following.
T1: TbPar42 PPIase domain (264-383) (T. brucei, succinyl on the N-terminus; phosphothreonine at position 2; C-terminal amide / 15N-labelled, wild type; entity position 1 = Pro264 (offset 263), so checks are His271, Cys333, Leu374; residual GP from)
T1 chain: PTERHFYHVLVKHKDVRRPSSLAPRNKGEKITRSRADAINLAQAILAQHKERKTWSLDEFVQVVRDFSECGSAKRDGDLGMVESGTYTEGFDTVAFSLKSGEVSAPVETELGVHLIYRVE

B1: Suc-Ala-pThr-Pro-Ala-NH2 (peptide)
peptide: Suc-A[pT]PA-NH2
SMILES: C[C@H](NC(=O)[C@@H]1CCCN1C(=O)[C@@H](NC(=O)[C@H](C)NC(=O)CCC(=O)O)[C@@H](C)OP(=O)(O)O)C(N)=O
notes: also called phosphorylated model peptide; source: synthetic peptide, bought: CASLO
B2: Ala-Glu-Ala-pThr-Ala-Glu-Ser (peptide)
chain: AEA[pT]AES
B3: Ala-Glu-Ala-pThr-Ala-Glu-Val (peptide)
chain: AEA[pT]AEV
B4: Ala-Glu-Ala-pThr-Ala-Glu-Ile (peptide)
chain: AEA[pT]AEI
B5: Ala-Glu-Ala-pThr-Ala-Glu-Asp (peptide)
chain: AEA[pT]AED
B6: Ala-Glu-Ala-pThr-Ala-Glu-Glu (peptide)
chain: AEA[pT]AEE

One experiment has as its target T1, TbPar42 PPIase domain (264-383). Description: NMR titration; 440 uM 15N-labelled NterFHA or PPIase in 50 mM potassium phosphate, pH 6.26, 90%/10% H2O/D2O; peptide added stepwise to 13 mM; 1H-15N-HSQC or SOFAST spectra, 700 MHz, 27 °C. The settings on record: both partners purified.
Take B1: the Kd is around 10 mM.

For another experiment, the target named is TbPar42 N-terminal extended FHA domain (1-177) (Trypanosoma brucei, UniProt Q57XM6 1-177). Description: NMR titration; unlabelled Ala-Glu-Ala-pThr-Ala-Glu-Xaa peptide added stepwise up to 8 mM to 250 µM 15N-labelled NterFHA; 1H-15N-HSQC, 27 °C; mean KD values. The settings on record: both partners purified.
B2: binding was put at a Kd of 3.1 mM.

B3 registered a Kd of 3.9 mM.

Molecule B4 displayed a Kd of 4.1 mM.

B5 returned a Kd of 3.4 mM.

The molecule B6 gave a Kd of 5.4 mM.
